Biological target: T1, C3b (UniProt P01024 23-667; P01024 749-1663)
T1 construct: Coated on the microtiter plate at 5 ug/ml; source: bought: CompTech
Experiment: ELISA; C3-convertase assembled on coated C3b in the presence of patient IgGs for 45 min, then Factor H (20 ug/ml) added, 37°C; convertase-bound Bb detected at 15, 30 or 45 min with Factor B polyclonal antiserum, OD 450 nm
Settings: both partners purified

T1 sequence (P01024 23-667, chain 1 of 2): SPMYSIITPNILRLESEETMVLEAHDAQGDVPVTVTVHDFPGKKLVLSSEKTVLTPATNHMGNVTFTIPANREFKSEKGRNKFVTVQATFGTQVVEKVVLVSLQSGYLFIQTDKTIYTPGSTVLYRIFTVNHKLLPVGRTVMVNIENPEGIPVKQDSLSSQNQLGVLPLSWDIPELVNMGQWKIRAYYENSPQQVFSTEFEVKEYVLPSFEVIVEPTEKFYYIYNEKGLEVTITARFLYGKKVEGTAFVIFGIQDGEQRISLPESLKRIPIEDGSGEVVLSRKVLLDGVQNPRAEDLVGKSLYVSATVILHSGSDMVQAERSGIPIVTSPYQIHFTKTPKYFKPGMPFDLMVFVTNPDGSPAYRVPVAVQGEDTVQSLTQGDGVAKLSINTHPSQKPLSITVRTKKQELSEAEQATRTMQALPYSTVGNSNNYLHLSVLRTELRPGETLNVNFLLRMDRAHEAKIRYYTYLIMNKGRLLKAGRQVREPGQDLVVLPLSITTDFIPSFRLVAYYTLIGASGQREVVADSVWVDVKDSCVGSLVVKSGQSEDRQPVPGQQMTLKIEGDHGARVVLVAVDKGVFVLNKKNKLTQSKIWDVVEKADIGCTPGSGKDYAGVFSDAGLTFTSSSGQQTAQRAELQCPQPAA
T1 sequence (P01024 749-1663, chain 2 of 2): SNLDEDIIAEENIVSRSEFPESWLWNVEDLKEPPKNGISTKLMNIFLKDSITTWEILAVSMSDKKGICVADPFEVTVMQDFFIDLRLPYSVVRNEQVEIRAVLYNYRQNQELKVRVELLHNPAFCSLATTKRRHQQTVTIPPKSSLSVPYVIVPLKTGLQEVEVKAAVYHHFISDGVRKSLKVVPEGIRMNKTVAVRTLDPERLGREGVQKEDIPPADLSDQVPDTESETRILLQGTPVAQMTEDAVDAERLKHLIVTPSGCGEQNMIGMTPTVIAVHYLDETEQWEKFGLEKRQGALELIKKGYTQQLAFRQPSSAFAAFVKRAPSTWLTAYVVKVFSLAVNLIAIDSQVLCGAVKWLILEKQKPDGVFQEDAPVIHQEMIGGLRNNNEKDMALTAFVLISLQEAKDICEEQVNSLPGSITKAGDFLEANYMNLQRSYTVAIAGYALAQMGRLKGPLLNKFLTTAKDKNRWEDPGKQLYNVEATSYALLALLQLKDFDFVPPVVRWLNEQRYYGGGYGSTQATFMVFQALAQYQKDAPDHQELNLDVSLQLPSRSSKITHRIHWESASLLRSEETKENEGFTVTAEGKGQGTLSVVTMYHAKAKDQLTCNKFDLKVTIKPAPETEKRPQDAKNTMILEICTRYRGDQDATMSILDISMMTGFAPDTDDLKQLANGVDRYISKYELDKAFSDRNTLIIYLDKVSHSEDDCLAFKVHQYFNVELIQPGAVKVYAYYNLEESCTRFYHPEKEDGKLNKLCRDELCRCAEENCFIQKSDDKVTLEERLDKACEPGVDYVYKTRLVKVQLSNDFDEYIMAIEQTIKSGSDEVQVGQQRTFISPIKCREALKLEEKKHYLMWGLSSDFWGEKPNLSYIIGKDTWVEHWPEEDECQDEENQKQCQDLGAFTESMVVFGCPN

B1: Factor H (natural protein, UniProt P08603 19-1231, looked up)
chain: EDCNELPPRRNTEILTGSWSDQTYPEGTQAIYKCRPGYRSLGNVIMVCRKGEWVALNPLRKCQKRPCGHPGDTPFGTFTLTGGNVFEYGVKAVYTCNEGYQLLGEINYRECDTDGWTNDIPICEVVKCLPVTAPENGKIVSSAMEPDREYHFGQAVRFVCNSGYKIEGDEEMHCSDDGFWSKEKPKCVEISCKSPDVINGSPISQKIIYKENERFQYKCNMGYEYSERGDAVCTESGWRPLPSCEEKSCDNPYIPNGDYSPLRIKHRTGDEITYQCRNGFYPATRGNTAKCTSTGWIPAPRCTLKPCDYPDIKHGGLYHENMRRPYFPVAVGKYYSYYCDEHFETPSGSYWDHIHCTQDGWSPAVPCLRKCYFPYLENGYNQNYGRKFVQGKSIDVACHPGYALPKAQTTVTCMENGWSPTPRCIRVKTCSKSSIDIENGFISESQYTYALKEKAKYQCKLGYVTADGETSGSITCGKDGWSAQPTCIKSCDIPVFMNARTKNDFTWFKLNDTLDYECHDGYESNTGSTTGSIVCGYNGWSDLPICYERECELPKIDVHLVPDRKKDQYKVGEVLKFSCKPGFTIVGPNSVQCYHFGLSPDLPICKEQVQSCGPPPELLNGNVKEKTKEEYGHSEVVEYYCNPRFLMKGPNKIQCVDGEWTTLPVCIVEESTCGDIPELEHGWAQLSSPPYYYGDSVEFNCSESFTMIGHRSITCIHGVWTQLPQCVAIDKLKKCKSSNLIILEEHLKNKKEFDHNSNIRYRCRGKEGWIHTVCINGRWDPEVNCSMAQIQLCPPPPQIPNSHNMTTTLNYRDGEKVSVLCQENYLIQEGEEITCKDGRWQSIPLCVEKIPCSQPPQIEHGTINSSRSSQESYAHGTKLSYTCEGGFRISEENETTCYMGKWSSPPQCEGLPCKSPPEISHGVVAHMSDSYQYGEEVTYKCFEGFGIDGPAIAKCLGEKWSHPPSCIKTDCLSLPSFENAIPMGEKKDVYKAGEQVTYTCATYYKMDGASNVTCINSRWTGRPTCRDTSCVNPPTVQNAYIVSRQMSKYPSGERVRYQCRSPYEMFGDEEVMCLNGNWTEPPQCKDSTGKCGPPPPIDNGDITSFPLSVYAPASSVEYQCQNLYQLEGNKRITCRNGQWSEPPKCLHPCVISREIMENYNIALRWTAKQKLYSRTGESVEFVCKRGYRLSSRSHTLRTTCWDGKLEYPTCAKR
notes: complement Factor H; Used at 20 ug/ml; source: bought: CompTech
Question: Does B1 bind?
Answer: binds

Reference: publication PMC6554336, “C3-Glomerulopathy Autoantibodies Mediate Distinct Effects on Complement C3- and C5-Convertases” (Frontiers in Immunology, 2019)
